Consider twelve sequences from the supplement of paper PMC11246515.

A short description of the series: total protein half-life in vivo (active degradation + dilution); higher = more stable protein.
[1] abbreviates: E. coli NCM3722 delta-clpP delta-lon delta-hslV, growth: N-lim chemostat, doubling time 6 h.
Where [2] appears, read: E. coli NCM3722 delta-clpP, growth: N-lim chemostat, doubling time 6 h.
[3] abbreviates: E. coli NCM3722 delta-hslV, growth: N-lim chemostat, doubling time 6 h.
Setting [4] is: E. coli NCM3722 delta-lon, growth: N-lim chemostat, doubling time 6 h.
Setting [5] is: E. coli NCM3722 delta-smpB, growth: N-lim chemostat, doubling time 6 h.
Setting [6] is: wild type E. coli NCM3722, growth: C-lim chemostat, doubling time 3 h.
Setting [7] is: wild type E. coli NCM3722, growth: C-lim chemostat, doubling time 6 h.
[8] abbreviates: wild type E. coli NCM3722, growth: C-lim chemostat, doubling time 12 h.
Setting [9] is: wild type E. coli NCM3722, growth: N-lim chemostat, doubling time 6 h.
The mark [10] stands for this setting: wild type E. coli NCM3722, growth: N-lim chemostat, doubling time 12 h.
Setting [11] is: wild type E. coli NCM3722, growth: P-lim chemostat, doubling time 6 h.
Setting [12] is: wild type E. coli NCM3722, growth: P-lim chemostat, doubling time 12 h.

± gives the standard deviation of the averaged measurements. Some results are limits rather than exact numbers.

For “MKAAAKTQKPKRQEEHANFISWRFALLCGCILLALAFLLGRVAWLQVISPDMLVKEGDMRSLRVQQVSTSRGMITDRSGRPLAVSVPVKAIWADPKEVHDAGGISVGDRWKALANALNIPLDQLSARINANPKGRFIYLARQVNPDMADYIKKLKLPGIHLREESRRYYPSGEVTAHLIGFTNVDSQGIEGVEKSFDKWLTGQPGERIVRKDRYGRVIEDISSTDSQAAHNLALSIDERLQALVYRELNNAVAFNKAESGSAVLVDVNTGEVLAMANSPSYNPNNLSGTPKEAMRNRTITDVFEPGSTVKPMVVMTALQRGVVRENSVLNTIPYRINGHEIKDVARYSELTLTGVLQKSSNVGVSKLALAMPSSALVDTYSRFGLGKATNLGLVGERSGLYPQKQRWSDIERATFSFGYGLMVTPLQLARVYATIGSYGIYRPLSITKVDPPVPGERVFPESIVRTVVHMMESVALPGGGGVKAAIKGYRIAIKTGTAKKVGPDGRYINKYIAYTAGVAPASQPRFALVVVINDPQAGKYYGGAVSAPVFGAIMGGVLRTMNIEPDALTTGDKNEFVINQGEGTGGRS [P0AD68]”, the “total protein half-life in vivo” value by setting is: under setting [1], 2.8 ± 0.043 h; under setting [2], 2.39 ± 0.032 h; under setting [3], 2.53 ± 0.39 h; under setting [4], 2.31 ± 0.099 h; under setting [5], 2.77 ± 0.059 h; under setting [6], 1.75 ± 0.11 h. Further, the “total protein half-life in vivo” value is 2.35 ± 0.13 h under setting [7]; 2.75 ± 0.35 h under setting [8]; 2.61 ± 0.035 h under setting [9]; 3.15 ± 0.18 h under setting [10]; 3.311 ± 0.027 h under setting [11]; 4.83 ± 0.71 h under setting [12].

As to “MLSKQIPLGIYEKALPAGECWLERLQLAKTLGFDFVEMSVDETDDRLSRLNWSREQRLALVNAIVETGVRVPSMCLSAHRRFPLGSEDDAVRAQGLEIMRKAIQFAQDVGIRVIQLAGYDVYYQEANNETRRRFRDGLKESVEMASRAQVTLAMEIMDYPLMSSISKALGYAHYLNNPWFQLYPDIGNLSAWDNDVQMELQAGIGHIVAVHVKDTKPGVFKNVPFGEGVVDFERCFETLKQSGYCGPYLIEMWSETAEDPAAEVAKARDWVKARMAKAGMVEAA”, the “total protein half-life in vivo” value under setting [1] stood at 5.97 h.

As to “MTTHDRVRLQLQALEALLREHQHWRNDEPQPHQFNSTQPFFMDTMEPLEWLQWVLIPRMHDLLDNKQPLPGAFAVAPYYEMALATDHPQRALILAELEKLDALFADDAS”, the “total protein half-life in vivo” value under setting [1] was 5.66 ± 0.27 h; the “total protein half-life in vivo” value under setting [5] amounted to 3.91 h; the “total protein half-life in vivo” value under setting [6] came to 2.09 h; the “total protein half-life in vivo” value under setting [7] is 4.97 ± 0.19 h; the “total protein half-life in vivo” value under setting [8] came to 11.8 ± 5.3 h; the “total protein half-life in vivo” value under setting [9] came out at 3.394 ± 0.03 h. Moreover, the “total protein half-life in vivo” value runs as follows: under setting [10], 6.93 h; under setting [11], 3.49 ± 1.9 h; under setting [12], 7.56 ± 1.8 h.

For the sequence “MSQVLITGATGLVGGHLLRMLINEPKVNAIAAPTRRPLGDMPGVFNPHDPQLSDALAQVTDPIDIVFCCLGTTRREAGSKEAFIHADYTLVVDTALTGRRLGAQHMLVVSAMGANAHSPFFYNRVKGEMEEALIAQNWPKLTIARPSMLLGDRSKQRMNETLFAPLFRLLPGNWKSIDARDVARVMLAESMRPEHEGVTILSSSELRKRAE”, the “total protein half-life in vivo” value reads like this: under setting [1], 6.13 ± 0.065 h; under setting [2], 5.36 ± 0.4 h; under setting [3], 5.98 ± 0.48 h; under setting [4], 6.26 ± 0.69 h; under setting [6], 3.24 ± 0.14 h; under setting [9], 5.69 ± 1.1 h.

Regarding “MDIISVALKRHSTKAFDASKKLTPEQAEQIKTLLQYSPSSTNSQPWHFIVASTEEGKARVAKSAAGNYVFNERKMLDASHVVVFCAKTAMDDVWLKLVVDQEDADGRFATPEAKAANDKGRKFFADMHRKDLHDDAEWMAKQVYLNVGNFLLGVAALGLDAVPIEGFDAAILDAEFGLKEKGYTSLVVVPVGHHSVEDFNATLPKSRLPQNITLTEV”, the “total protein half-life in vivo” value runs as follows: under setting [1], 2.56 ± 0.26 h; under setting [2], 1.66 ± 0.42 h; under setting [3], 1.405 ± 0.01 h; under setting [4], 2.01 ± 0.14 h; under setting [5], 1.62 ± 0.067 h; under setting [6], 2.72 ± 0.21 h. The “total protein half-life in vivo” value by setting is: under setting [7], 3.38 ± 0.86 h; under setting [8], 5.94 ± 0.37 h; under setting [9], 1.58 ± 0.097 h; under setting [10], 2.17 ± 0.057 h; under setting [11], 4.45 ± 0.91 h; under setting [12], 7.04 ± 0.45 h.

For “MSFMVSEEVTVKEGGPRMIVTGYSSGMVECRWYDGYGVKREAFHETELVPGEGSRSAEEV”, the “total protein half-life in vivo” value by setting is: under setting [1], 5.18 h; under setting [2], 0.609 ± 0.66 h; under setting [6], 0.36 h; under setting [7], 0.469 h.

As for “MRYDKELTENEMIRQKILQQLLEWIECNLEHPISIEDIAQKSGYSRRNIQLLFRNFMHVPLGEYIRKRRLCRAAILVRLTAKSMLDIALSLHFDSQQSFSREFKKLFGCSPREYRHRDYWDLANIFPSFLIRQQQKTECRLINFPETPIFGNSFKYDIEVSNKSPDEEVKLRRHHLARCMKNFKTDIYFVSTFEPSTKSVDLLTVETFAGTVCEYADMPKEWTTTRGLYDPTHVIWTQA”, the “total protein half-life in vivo” value under setting [1] is over 8 h.

Consider “MEKDYLRISSTVLVSLLFGLALVLVNSWFNQPGVEEVVPRSTYLMVMIALFFIDTVAFIFMQLYFIYDRRQFSNCVLSLAFLSCLIYFVITVIIIQQIIEERLTSSVVQNDIAIYYLFRQMSLCILIFLALVNKVSENTKQRNLFSKKMTLCISLFFVFGGPIVAHILSSHYESYNLHIAELTNENGQVVWKASYVTIMIFMWLTLLSVNLYFNGLRYDIWNGVTVIAFCAVLYNISLLFMSRYSVSTWYISRTIEVVSKLTVMVIFMCHIFSALRVTKNIAHRDPLTNIFNRNYFFNELTVQSASAQKTPYCVMIMDIDHFKKVNDTWGHPVGDQVIKTVVNIIGKSIRPDDLLARVGGEEFGVLLTDIDTERAKALAERIRENVERLTGDNPEYAIPQKVTISIGAVVTQENALNPNEIYRLADNALYEAKETGRNKVVVRDVVNFCESP”, for which the “total protein half-life in vivo” value under setting [6] was 2.9 h.

In the case of “MNTLLLLAALSSQITFNTTQQGDVYTIIPEVTLTQSCLCRVQILSLREGSSGQSQTKQEKTLSLPANQPIALTKLSLNISPDDRVKIVVTVSDGQSLHLSQQWPPSSEKS”, the “total protein half-life in vivo” value under setting [1] was determined as 4.26 ± 0.3 h; the “total protein half-life in vivo” value under setting [2] was found to be 3.33 h; the “total protein half-life in vivo” value under setting [5] turned out to be 3.31 ± 0.35 h; the “total protein half-life in vivo” value under setting [6] is 2.3 h; the “total protein half-life in vivo” value under setting [8] turned out to be 5.97 ± 1.4 h; the “total protein half-life in vivo” value under setting [9] came to 4.1 h. In addition, the “total protein half-life in vivo” value is, setting by setting: under setting [10], 6.87 ± 0.16 h; under setting [11], 4.19 h; under setting [12], 7.71 ± 0.17 h.

As to “MHSLQRKVLRTICPDQKGLIARITNICYKHELNIVQNNEFVDHRTGRFFMRTELEGIFNDSTLLADLDSALPEGSVRELNPAGRRRIVILVTKEAHCLGDLLMKANYGGLDVEIAAVIGNHDTLRSLVERFDIPFELVSHEGLTRNEHDQKMADAIDAYQPDYVVLAKYMRVLTPEFVARFPNKIINIHHSFLPAFIGARPYHQAYERGVKIIGATAHYVNDNLDEGPIIMQDVIHVDHTYTAEDMMRAGRDVEKNVLSRALYKVLAQRVFVYGNRTIIL”, the “total protein half-life in vivo” value under setting [1] came out at 5.61 ± 0.48 h; the “total protein half-life in vivo” value under setting [2] was determined as 5.19 ± 0.2 h; the “total protein half-life in vivo” value under setting [3] worked out at 4.71 ± 0.23 h; the “total protein half-life in vivo” value under setting [4] turned out to be 5.71 ± 1.4 h; the “total protein half-life in vivo” value under setting [5] is 4.94 ± 0.19 h; the “total protein half-life in vivo” value under setting [6] turned out to be 2.78 ± 0.4 h. Further, the “total protein half-life in vivo” value was 6.27 ± 1.3 h under setting [7]; 10.5 ± 0.78 h under setting [8]; 4.8 ± 0.3 h under setting [9]; 9.08 ± 0.9 h under setting [10]; 5.77 ± 0.26 h under setting [11]; 12.6 ± 0.46 h under setting [12].

For the sequence “MNSLTTHYRRSQLIALPVPGGKAKVEYCYAVNVPGDREIVTHSFAEWAVGDFNRQKETVLCDKLTAGSKITTECPSESFVGSRKHNGLSTSAKVMSMNASARSNSFVVNSGK”, under setting [1], the “total protein half-life in vivo” value was 1.84 h.

Regarding “MLPDSSVRLNKYISESGICSRREADRYIEQGNVFLNGKRATIGDQVKPGDVVKVNGQLIEPREAEDLVLIALNKPVGIVSTTEDGERDNIVDFVNHSKRVFPIGRLDKDSQGLIFLTNHGDLVNKILRAGNDHEKEYLVTVDKPITEEFIRGMSAGVPILGTVTKKCKVKKEAPFVFRITLVQGLNRQIRRMCEHFGYEVKKLERTRIMNVSLSGIPLGEWRDLTDDELIDLFKLIENSSSEVKPKAKAKPKTAGIKRPVVKMEKTAEKGGRPASNGKRFTSPGRKKKGR”, the “total protein half-life in vivo” value reads like this: under setting [1], 6.01 ± 1.2 h; under setting [2], 3.751 ± 0.021 h; under setting [3], 3.44 ± 0.14 h; under setting [4], 5.61 ± 0.41 h; under setting [5], 3.43 ± 0.087 h; under setting [6], 2.2 ± 0.11 h. In addition, the “total protein half-life in vivo” value under setting [7] turned out to be 4.11 ± 0.4 h; the “total protein half-life in vivo” value under setting [8] was found to be 5.93 ± 0.93 h; the “total protein half-life in vivo” value under setting [9] was determined as 3.29 ± 0.094 h; the “total protein half-life in vivo” value under setting [10] came to 5.37 ± 0.073 h; the “total protein half-life in vivo” value under setting [11] is 2.59 ± 0.18 h; the “total protein half-life in vivo” value under setting [12] was determined as 5.07 ± 0.21 h.
